Measured values taken from patent publication US20260116991A1 (HAINAN SIMCERE ZAIMING PHARMACEUTICAL, published 2026).

Columns and labels:
monkey GPC3-His protein [1] = target: T1, monkey GPC3-His protein (monkey); experiment: ELISA, monkey GPC3-His coated;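 also: Plate-coated antigen at 1 µg/mL, antibody binding 2 h at 37 °C, detected with HRP-labeled secondary antibody and TMB, absorbance at 450 nm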
T1 construct: Bought recombinant protein; also called monkey GPC3 protein

[2] = target: T2, monkey GPC3 on HEK293T-monkey GPC3 cells (monkey); experiment: FACS on HEK293T-monkey GPC3 cells;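 also: flow cytometry binding of test antibodies to the cells, read as mean fluorescence intensity, with half-maximal concentration taken from fitted curves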
T2 construct: whole, on cells
Protocol: The desired cells were expanded to a logarithmic growth phase in a T-75 cell culture flask, the medium was removed by pipetting, and the cells were washed twice with a PBS buffer, and digested with trypsin. Then a complete medium was added to stop the digestion, and the cells were blown into a single cell suspension. After counting, the cells were centrifuged, and the cell pellet was resuspended with an FACS buffer (PBS+2% fetal bovine serum) to 2×10⁶ cells/mL. The cell resuspension solution was added to a 96-well FACS reaction plate at 50 μl/well, and a chimeric antibody sample to be tested was added at 50 μl/well for incubation at 4° C. for 1 h. […] After the plate was centrifuged and washed 3 times with a PBS buffer, 100 μl of the resulting solution was assayed and analyzed by FACS (FACS Canto™, purchased from BD Biosciences). Data analysis was performed by software (FlowJo) to obtain the mean fluorescence intensity (MFI) of the cells. Then, analysis was performed by software (GraphPad Prism8), data were fitted, and EC₅₀ values were calculated.

human GPC3-His protein = target: T3, human GPC3-His protein (human, UniProt P51654 25-559); experiment: SPR, antibody captured on Protein A chip, human GPC3-His analyte;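 also: measured at 25 °C flow cell, human GPC3-His injected at five concentrations up to 200 nM, 240 s association, up to 600 s dissociation, double-referenced, fitted to Langmuir 1:1 model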
T3 construct: also called human GPC3 protein; not shown: His tag

monkey GPC3-His protein [3] = target: T1, monkey GPC3-His protein; experiment: SPR, antibody captured on Protein A chip, monkey GPC3-His analyte;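 also: run at 25 °C with 240 s association and up to 600 s dissociation, double-referenced, kinetics fitted to a 1:1 Langmuir binding model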
Protocol: The flow cell was set at 25° C. The sample block was set at 16° C. Both were pretreated with the running buffer. In each cycle, first, the antibody to be tested was captured using the Protein A chip, and then a single concentration of GPC3 antigen protein was injected. […] The association was determined by injecting different concentrations of human GPC3-His in the solution and maintaining for 240 s, wherein the flow rate was 30 μL/min, and the protein was diluted at a 1:1 dilution ratio from 200 nM to obtain 5 concentrations in total. The dissociation phase was monitored for up to 600 s and triggered by switching from the sample solution to the running buffer. The surface was regenerated by washing with 10 mM glycine solution (pH 1.5) at a flow rate of 30 μL/min for 30 s. The difference in bulk refractive index was corrected by subtracting the responses obtained from the goat anti-human Fc surface. Blank injections (double reference) were also subtracted. To calculate the apparent KD and other kinetic parameters, the Langmuir 1:1 model was used.

B1: F1.118.4 (antibody, human IgG1, kappa, V domains shown)
VH: QVQLQQSGAELAKPGASVKLSCKASGYSFTSYWIHWVKQRPGQGLEWIGYINPSSGYTKYNQKFKDKATLTADKSSSTAYMQLSSLTYEDSAVYYCARFGSSSFYFDYWGQGTTLTVSS
VL: DIVLTQSPASLAVSLGQRATISCRASQSVSSSSYSYMHWYQQKPGQPPKLLIKYASNLDSGVPARFSGSGSGTDFTLNIHPVEEEDTATYYCQHSWEIPAFGGGTKLEIKR
notes: Human-murine chimeric antibody
Monkey GPC3-His protein [1]
  OD450 at 0.0001 nM: 0.05 OD450
  OD450 at 0.001 nM: 0.08 OD450
  OD450 at 0.01 nM: 0.28 OD450
  OD450 at 0.1 nM: 1.43 OD450
  OD450 at 1 nM: 2.21 OD450
  OD450 at 10 nM: 2.32 OD450
  OD450 at 100 nM: 2.14 OD450
[2]
  EC50: 320 pM
  Max MFI: 6220 MFI
Human GPC3-His protein
  Kd: 472 pM
  koff: 0.000118 s⁻¹
  kon: 251000 M⁻¹ s⁻¹
Monkey GPC3-His protein [3]
  Kd: 226 pM
  koff: 0.000102 s⁻¹
  kon: 453000 M⁻¹ s⁻¹

B2: F1.120.16 (antibody, human IgG1, kappa, V domains shown)
VH: EFQLQQSGPELVKPGASVKISCKASGYSFTDYNMNWVKQSNGKSLEWIGLIHPKFSVTSYNRKFKGKATLTVDQSSSTAYMQLNSLTSEDSAVYYCARWAGDYFDYWGQGTTLTVSS
VL: DIVLTQSPATLSVTPGDSVSLSCRASQSISNNLHWYQQKSHESPRLLIKYASQSISGIPSRFSGSGSGTDFTLTINSVETEDFGMYFCQQSNSWPQTFGGGTKLEIKR
notes: as for B1
Monkey GPC3-His protein [1]
  OD450 at 0.0001 nM: 0.07 OD450
  OD450 at 0.001 nM: 0.07 OD450
  OD450 at 0.01 nM: 0.26 OD450
  OD450 at 0.1 nM: 1.11 OD450
  OD450 at 1 nM: 1.91 OD450
  OD450 at 10 nM: 2.21 OD450
  OD450 at 100 nM: 2.14 OD450
[2]
  EC50: 250 pM
  Max MFI: 5540 MFI
Human GPC3-His protein
  Kd: 8030 pM
  koff: 0.000629 s⁻¹
  kon: 78400 M⁻¹ s⁻¹
Monkey GPC3-His protein [3]
  Kd: 4440 pM
  koff: 0.000639 s⁻¹
  kon: 144000 M⁻¹ s⁻¹

B3: F1.111.11 (antibody, human IgG1, kappa, V domains shown)
VH: EVQLQQSGPELVKPGASVKISCKASGYTFTDYYMNWVKQSHGKSLEWIGDIYPNNGDTTYNQRFKGKATLTVDKSSSTAYMELRSLASEDSAVYYCACPYNNPFGYWGQGTLVTVSA
VL: DVVMTQTPLSLPVSLGDQASISCRSSQSLVHSNGNTYLHWYLQKPGQSPKLLIYKVSNRFSGVPDRFSGSGSGTDFTLKISRVEAEDLGVYFCSQSTHVPWTFGGGTKLEIKR
notes: as for B1
Monkey GPC3-His protein [1]
  OD450 at 0.0001 nM: 0.06 OD450
  OD450 at 0.001 nM: 0.11 OD450
  OD450 at 0.01 nM: 0.53 OD450
  OD450 at 0.1 nM: 1.91 OD450
  OD450 at 1 nM: 2.57 OD450
  OD450 at 10 nM: 2.62 OD450
  OD450 at 100 nM: 2.66 OD450
[2]
  EC50: 420 pM
  Max MFI: 4450 MFI
Human GPC3-His protein
  Kd: 6750 pM
  koff: 0.000445 s⁻¹
  kon: 65800 M⁻¹ s⁻¹
Monkey GPC3-His protein [3]
  Kd: 4670 pM
  koff: 0.000447 s⁻¹
  kon: 95800 M⁻¹ s⁻¹

B4: F3.38.7 (antibody, human IgG1, kappa, V domains shown)
VH: QVQLQQSGAELVRPGASVKLSCKASGYTFTDYEIHWVKQTPVLGLEWIGAIDPKTGNTAYNQKFMGKATLTADKSSTTAYMDLRSLTSEDSAVYYCTRYFSFAYWGQGTLVTVSA
VL: DVLMTQTPLSLPVSLGDQASISCRSSQTFVHSNGNTYLQWYLQKPGQSPKLLIYKVSNRFSGVPDRFSGSGSGTDFTLKISRVEAEDLGVYYCFQGSHVPYTFGSGTKLEIKR
notes: as for B1
Monkey GPC3-His protein [1]
  OD450 at 0.0001 nM: 0.06 OD450
  OD450 at 0.001 nM: 0.1 OD450
  OD450 at 0.01 nM: 0.42 OD450
  OD450 at 0.1 nM: 1.69 OD450
  OD450 at 1 nM: 2.37 OD450
  OD450 at 10 nM: 2.58 OD450
  OD450 at 100 nM: 3.01 OD450
[2]
  EC50: 850 pM
  Max MFI: 110000 MFI
Human GPC3-His protein
  Kd: 997 pM
  koff: 0.000361 s⁻¹
  kon: 362000 M⁻¹ s⁻¹
Monkey GPC3-His protein [3]
  Kd: 725 pM
  koff: 0.000386 s⁻¹
  kon: 532000 M⁻¹ s⁻¹

B5: F1.115.8 (antibody, human IgG1, kappa, V domains shown)
VH: EVQLQQSGPELVKPGASVKMSCKASGYTFTEYYMHWVKQSHGKSLEWIGYIYPNNGGNGYNQKFKGKATLTVDKSSSTAYMGLRSLTSEDSAVYYCVRGYYSNWYFDVWGTGTTVTVSS
VL: DVLMTQTPLSLPVSLGDQASISCRSSQSIVHSNGKTYLEWYLQKPGQSPKLLIYKVSNRFSGVPDRFSGSGSGTDFTLKISRVEAEDLGVYYCFQGSHVPFTFGSGTKLEIKR
notes: as for B1
Monkey GPC3-His protein [1]
  OD450 at 0.0001 nM: 0.05 OD450
  OD450 at 0.001 nM: 0.07 OD450
  OD450 at 0.01 nM: 0.27 OD450
  OD450 at 0.1 nM: 1.33 OD450
  OD450 at 1 nM: 2.14 OD450
  OD450 at 10 nM: 2.36 OD450
  OD450 at 100 nM: 2.26 OD450
[2]
  EC50: 330 pM
  Max MFI: 6390 MFI
Human GPC3-His protein
  Kd: 1400 pM
  koff: 0.00115 s⁻¹
  kon: 820000 M⁻¹ s⁻¹
Monkey GPC3-His protein [3]
  Kd: 1050 pM
  koff: 0.00145 s⁻¹
  kon: 1.38e+06 M⁻¹ s⁻¹
